Results taken from publication doi:10.1101/2023.12.20.572361.

Assays:
[1] = EDL isometric tetanic and specific force in vitro; conditions: glycan lost; control: WT mice
[2] = H&E and immunofluorescence of skeletal muscle; conditions: glycan lost; control: WT mice
[3] = EDL eccentric contraction protocol; conditions: glycan lost; control: WT mice
[4] = EDL CSA from mass and fibre length; conditions: glycan lost; control: WT mice
[5] = homozygous birth rate from heterozygous crosses; conditions: glycan lost; control: expected Mendelian ratio
[6] = forelimb grip strength, AAV rescue of DAG1 KO; conditions: glycan lost; control: AAV WT DAG1

Row | Protein | other: muscle contractile force [1] | other: skeletal muscle histopathology [2] | other: susceptibility to contraction-induced injury [3] | other: muscle cross-sectional area [4] | other: embryonic viability, other: homozygous birth rate [5] | other: rescue of grip strength [6]
1 | dystroglycan (mDag1): T315A/T317A (protein) parent chain: MSVDNWLLHPLWGQTFLLLLSVAVAQAHWPSEPSEAVRDWKNQLEASMHSVLSDFQEAVPTVVGIPDGTAVVGRSFRVSIPTDLIASSGEIIKVSAAGKEALPSWLHWDPHSHILEGLPLDTDKGVHYISVSAARLGANGSHVPQTSSVFSIEVYPEDHNEPQSVRAASSDPGEVVPSACAADEPVTVLTVILDADLTKMTPKQRIDLLNRMQSFSEVELHNMKLVPVVNNRLFDMSAFMAGPGNAKKVVENGALLSWKLGCSLNQNSVPDIRGVETPAREGAMSAQLGYPVVGWHIANKKPTLPKRLRRQIHATPTPVTAIGPPTTAIQEPPSRIVPTPTSPAIAPPTETMAPPVRDPVPGKPTVTIRTRGAIIQTPTLGPIQPTRVSEAGTTVPGQIRPTLTIPGYVEPTAVITPPTTTTKKPRVSTPKPATPSTDSSTTTTRRPTKKPRTPRPVPRVTTKAPITRLETASPPTRIRTTTSGVPRGGEPNQRPELKNHIDRVDAWVGTYFEVKIPSDTFYDNEDTTTDKLKLTLKLREQQLVGEKSWVQFNSNSQLMYGLPDSSHVGKHEYFMHATDKGGLSAVDAFEIHVHKRPQGDKAPARFKARLAGDPAPVVNDIHKKIALVKKLAFAFGDRNCSSITLQNITRGSIVVEWTNNTLPLEPCPKEQIIGLSRRIADENGKPRPAFSNALEPDFKALSIAVTGSGSCRHLQFIPVAPPSPGSSAAPATEVPDRDPEKSSEDDVYLHTVIPAVVVAAILLIAGIIAMICYRKKRKGKLTLEDQATFIKKGVPIIFADELDDSKPPPSSSMPLILQEEKAPLPPPEYPNQSMPETTPLNQDTVGEYTPLRDEDPNAPPYQPPPPFTAPMEGKGSRPKNMTPYRSPPPYVPP | no change | no change | no change | changes | 10% | –
2 | dystroglycan (mDag1): AAV T315A/T317A DAG1 (protein) parent chain: MSVDNWLLHPLWGQTFLLLLSVAVAQAHWPSEPSEAVRDWKNQLEASMHSVLSDFQEAVPTVVGIPDGTAVVGRSFRVSIPTDLIASSGEIIKVSAAGKEALPSWLHWDPHSHILEGLPLDTDKGVHYISVSAARLGANGSHVPQTSSVFSIEVYPEDHNEPQSVRAASSDPGEVVPSACAADEPVTVLTVILDADLTKMTPKQRIDLLNRMQSFSEVELHNMKLVPVVNNRLFDMSAFMAGPGNAKKVVENGALLSWKLGCSLNQNSVPDIRGVETPAREGAMSAQLGYPVVGWHIANKKPTLPKRLRRQIHATPTPVTAIGPPTTAIQEPPSRIVPTPTSPAIAPPTETMAPPVRDPVPGKPTVTIRTRGAIIQTPTLGPIQPTRVSEAGTTVPGQIRPTLTIPGYVEPTAVITPPTTTTKKPRVSTPKPATPSTDSSTTTTRRPTKKPRTPRPVPRVTTKAPITRLETASPPTRIRTTTSGVPRGGEPNQRPELKNHIDRVDAWVGTYFEVKIPSDTFYDNEDTTTDKLKLTLKLREQQLVGEKSWVQFNSNSQLMYGLPDSSHVGKHEYFMHATDKGGLSAVDAFEIHVHKRPQGDKAPARFKARLAGDPAPVVNDIHKKIALVKKLAFAFGDRNCSSITLQNITRGSIVVEWTNNTLPLEPCPKEQIIGLSRRIADENGKPRPAFSNALEPDFKALSIAVTGSGSCRHLQFIPVAPPSPGSSAAPATEVPDRDPEKSSEDDVYLHTVIPAVVVAAILLIAGIIAMICYRKKRKGKLTLEDQATFIKKGVPIIFADELDDSKPPPSSSMPLILQEEKAPLPPPEYPNQSMPETTPLNQDTVGEYTPLRDEDPNAPPYQPPPPFTAPMEGKGSRPKNMTPYRSPPPYVPP | – | – | – | – | – | no change
3 | dystroglycan (mDag1): 4X mut. (protein) parent chain: MSVDNWLLHPLWGQTFLLLLSVAVAQAHWPSEPSEAVRDWKNQLEASMHSVLSDFQEAVPTVVGIPDGTAVVGRSFRVSIPTDLIASSGEIIKVSAAGKEALPSWLHWDPHSHILEGLPLDTDKGVHYISVSAARLGANGSHVPQTSSVFSIEVYPEDHNEPQSVRAASSDPGEVVPSACAADEPVTVLTVILDADLTKMTPKQRIDLLNRMQSFSEVELHNMKLVPVVNNRLFDMSAFMAGPGNAKKVVENGALLSWKLGCSLNQNSVPDIRGVETPAREGAMSAQLGYPVVGWHIANKKPTLPKRLRRQIHATPTPVTAIGPPTTAIQEPPSRIVPTPTSPAIAPPTETMAPPVRDPVPGKPTVTIRTRGAIIQTPTLGPIQPTRVSEAGTTVPGQIRPTLTIPGYVEPTAVITPPTTTTKKPRVSTPKPATPSTDSSTTTTRRPTKKPRTPRPVPRVTTKAPITRLETASPPTRIRTTTSGVPRGGEPNQRPELKNHIDRVDAWVGTYFEVKIPSDTFYDNEDTTTDKLKLTLKLREQQLVGEKSWVQFNSNSQLMYGLPDSSHVGKHEYFMHATDKGGLSAVDAFEIHVHKRPQGDKAPARFKARLAGDPAPVVNDIHKKIALVKKLAFAFGDRNCSSITLQNITRGSIVVEWTNNTLPLEPCPKEQIIGLSRRIADENGKPRPAFSNALEPDFKALSIAVTGSGSCRHLQFIPVAPPSPGSSAAPATEVPDRDPEKSSEDDVYLHTVIPAVVVAAILLIAGIIAMICYRKKRKGKLTLEDQATFIKKGVPIIFADELDDSKPPPSSSMPLILQEEKAPLPPPEYPNQSMPETTPLNQDTVGEYTPLRDEDPNAPPYQPPPPFTAPMEGKGSRPKNMTPYRSPPPYVPP | – | – | – | – | abolishes | –
4 | dystroglycan (mDag1): T377A/T379A (protein) parent chain: MSVDNWLLHPLWGQTFLLLLSVAVAQAHWPSEPSEAVRDWKNQLEASMHSVLSDFQEAVPTVVGIPDGTAVVGRSFRVSIPTDLIASSGEIIKVSAAGKEALPSWLHWDPHSHILEGLPLDTDKGVHYISVSAARLGANGSHVPQTSSVFSIEVYPEDHNEPQSVRAASSDPGEVVPSACAADEPVTVLTVILDADLTKMTPKQRIDLLNRMQSFSEVELHNMKLVPVVNNRLFDMSAFMAGPGNAKKVVENGALLSWKLGCSLNQNSVPDIRGVETPAREGAMSAQLGYPVVGWHIANKKPTLPKRLRRQIHATPTPVTAIGPPTTAIQEPPSRIVPTPTSPAIAPPTETMAPPVRDPVPGKPTVTIRTRGAIIQTPTLGPIQPTRVSEAGTTVPGQIRPTLTIPGYVEPTAVITPPTTTTKKPRVSTPKPATPSTDSSTTTTRRPTKKPRTPRPVPRVTTKAPITRLETASPPTRIRTTTSGVPRGGEPNQRPELKNHIDRVDAWVGTYFEVKIPSDTFYDNEDTTTDKLKLTLKLREQQLVGEKSWVQFNSNSQLMYGLPDSSHVGKHEYFMHATDKGGLSAVDAFEIHVHKRPQGDKAPARFKARLAGDPAPVVNDIHKKIALVKKLAFAFGDRNCSSITLQNITRGSIVVEWTNNTLPLEPCPKEQIIGLSRRIADENGKPRPAFSNALEPDFKALSIAVTGSGSCRHLQFIPVAPPSPGSSAAPATEVPDRDPEKSSEDDVYLHTVIPAVVVAAILLIAGIIAMICYRKKRKGKLTLEDQATFIKKGVPIIFADELDDSKPPPSSSMPLILQEEKAPLPPPEYPNQSMPETTPLNQDTVGEYTPLRDEDPNAPPYQPPPPFTAPMEGKGSRPKNMTPYRSPPPYVPP | no change | no change | no change | no change | 22% | –
5 | dystroglycan (mDag1): AAV 4X mutant DG (protein) parent chain: MSVDNWLLHPLWGQTFLLLLSVAVAQAHWPSEPSEAVRDWKNQLEASMHSVLSDFQEAVPTVVGIPDGTAVVGRSFRVSIPTDLIASSGEIIKVSAAGKEALPSWLHWDPHSHILEGLPLDTDKGVHYISVSAARLGANGSHVPQTSSVFSIEVYPEDHNEPQSVRAASSDPGEVVPSACAADEPVTVLTVILDADLTKMTPKQRIDLLNRMQSFSEVELHNMKLVPVVNNRLFDMSAFMAGPGNAKKVVENGALLSWKLGCSLNQNSVPDIRGVETPAREGAMSAQLGYPVVGWHIANKKPTLPKRLRRQIHATPTPVTAIGPPTTAIQEPPSRIVPTPTSPAIAPPTETMAPPVRDPVPGKPTVTIRTRGAIIQTPTLGPIQPTRVSEAGTTVPGQIRPTLTIPGYVEPTAVITPPTTTTKKPRVSTPKPATPSTDSSTTTTRRPTKKPRTPRPVPRVTTKAPITRLETASPPTRIRTTTSGVPRGGEPNQRPELKNHIDRVDAWVGTYFEVKIPSDTFYDNEDTTTDKLKLTLKLREQQLVGEKSWVQFNSNSQLMYGLPDSSHVGKHEYFMHATDKGGLSAVDAFEIHVHKRPQGDKAPARFKARLAGDPAPVVNDIHKKIALVKKLAFAFGDRNCSSITLQNITRGSIVVEWTNNTLPLEPCPKEQIIGLSRRIADENGKPRPAFSNALEPDFKALSIAVTGSGSCRHLQFIPVAPPSPGSSAAPATEVPDRDPEKSSEDDVYLHTVIPAVVVAAILLIAGIIAMICYRKKRKGKLTLEDQATFIKKGVPIIFADELDDSKPPPSSSMPLILQEEKAPLPPPEYPNQSMPETTPLNQDTVGEYTPLRDEDPNAPPYQPPPPFTAPMEGKGSRPKNMTPYRSPPPYVPP | – | – | – | – | – | abolishes
6 | dystroglycan (mDag1): 4X mut. (floxed WT allele removed by Pax7-Cre or AAV-CMV-Cre) (protein) parent chain: MSVDNWLLHPLWGQTFLLLLSVAVAQAHWPSEPSEAVRDWKNQLEASMHSVLSDFQEAVPTVVGIPDGTAVVGRSFRVSIPTDLIASSGEIIKVSAAGKEALPSWLHWDPHSHILEGLPLDTDKGVHYISVSAARLGANGSHVPQTSSVFSIEVYPEDHNEPQSVRAASSDPGEVVPSACAADEPVTVLTVILDADLTKMTPKQRIDLLNRMQSFSEVELHNMKLVPVVNNRLFDMSAFMAGPGNAKKVVENGALLSWKLGCSLNQNSVPDIRGVETPAREGAMSAQLGYPVVGWHIANKKPTLPKRLRRQIHATPTPVTAIGPPTTAIQEPPSRIVPTPTSPAIAPPTETMAPPVRDPVPGKPTVTIRTRGAIIQTPTLGPIQPTRVSEAGTTVPGQIRPTLTIPGYVEPTAVITPPTTTTKKPRVSTPKPATPSTDSSTTTTRRPTKKPRTPRPVPRVTTKAPITRLETASPPTRIRTTTSGVPRGGEPNQRPELKNHIDRVDAWVGTYFEVKIPSDTFYDNEDTTTDKLKLTLKLREQQLVGEKSWVQFNSNSQLMYGLPDSSHVGKHEYFMHATDKGGLSAVDAFEIHVHKRPQGDKAPARFKARLAGDPAPVVNDIHKKIALVKKLAFAFGDRNCSSITLQNITRGSIVVEWTNNTLPLEPCPKEQIIGLSRRIADENGKPRPAFSNALEPDFKALSIAVTGSGSCRHLQFIPVAPPSPGSSAAPATEVPDRDPEKSSEDDVYLHTVIPAVVVAAILLIAGIIAMICYRKKRKGKLTLEDQATFIKKGVPIIFADELDDSKPPPSSSMPLILQEEKAPLPPPEYPNQSMPETTPLNQDTVGEYTPLRDEDPNAPPYQPPPPFTAPMEGKGSRPKNMTPYRSPPPYVPP | – | increases | – | – | – | –
